Source: US20240417469A1 (CONCEPT TO MEDICINE BIOTECH, published 2024)

Experiments:
[1] = target: T1, human CD3 on cells (human PBMC; Jurkat TCR/CD3 NFAT reporter cells) (human, UniProt P07766 23-207; P04234 22-171; P09693 23-182); test: cell-based or functional assay
[2] = target: T2, recombinant CD3D&E protein (human CD3-his tag) (human, UniProt P04234 22-105; P07766 23-126, limits assumed); test: SPR Biacore, Ab captured on Protein A;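 further: humanized antibodies on a Protein A chip, human CD3-his analyte flowed over in serial dilutions for 3 min, dissociation tracked 120–360 s on a Biacore T200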
T2 construct: Analyte in Biacore; also called CD3D&E-His; CD3d&ε-His

[3] = target: T3, human CD3 protein (human, UniProt P07766 23-126; P04234 22-105); test: ELISA, plate-coated CD3;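 further: binding to plate-immobilized human CD3 protein, bound antibody detected with peroxidase-labelled anti-human IgG and TMB, read as absorbance at 450 nm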
T3 construct: ELISA coating protein; also called Human CD3D & CD3E Heterodimer Protein

[4] = target: T1, human CD3 on cells (human PBMC; Jurkat …); test: cell-based or functional assay; remark: listed apart in the source
Wherever Emax is given: unit not given here.

T1 sequence (P07766 23-207, chain 1 of 3): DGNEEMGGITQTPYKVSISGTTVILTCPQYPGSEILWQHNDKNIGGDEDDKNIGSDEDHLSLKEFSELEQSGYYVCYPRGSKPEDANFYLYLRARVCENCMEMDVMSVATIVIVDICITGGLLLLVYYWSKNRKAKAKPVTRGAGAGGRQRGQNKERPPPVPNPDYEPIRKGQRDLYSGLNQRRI
T1 sequence (P04234 22-171, chain 2 of 3): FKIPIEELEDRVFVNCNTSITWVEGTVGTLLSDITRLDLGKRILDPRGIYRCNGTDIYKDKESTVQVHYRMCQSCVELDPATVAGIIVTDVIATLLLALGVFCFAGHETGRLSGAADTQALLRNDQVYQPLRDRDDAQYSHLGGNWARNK
T1 sequence (P09693 23-182, chain 3 of 3): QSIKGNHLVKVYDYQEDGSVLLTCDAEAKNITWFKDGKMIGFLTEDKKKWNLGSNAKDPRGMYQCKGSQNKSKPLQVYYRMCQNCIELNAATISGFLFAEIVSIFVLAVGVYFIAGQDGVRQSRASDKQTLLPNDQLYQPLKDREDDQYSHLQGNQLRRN
T3 sequence (P07766 23-126 limits assumed, chain 1 of 2): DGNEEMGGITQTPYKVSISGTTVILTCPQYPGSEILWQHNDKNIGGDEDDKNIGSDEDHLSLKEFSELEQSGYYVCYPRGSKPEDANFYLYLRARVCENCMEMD
T3 sequence (P04234 22-105 limits assumed, chain 2 of 2): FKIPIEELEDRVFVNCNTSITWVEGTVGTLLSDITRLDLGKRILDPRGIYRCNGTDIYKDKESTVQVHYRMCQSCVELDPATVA
T2 sequence (P04234 22-105 limits assumed, chain 1 of 2): as the sequence (P04234 22-105 limits assumed, chain 2 of 2) above
T2 sequence (P07766 23-126 limits assumed, chain 2 of 2): as the sequence (P07766 23-126 limits assumed, chain 1 of 2) above

Binder	CD3-NFAT Activity by CD3 mAb [1] [% SP34]	Kd [2] [nM]	koff [2] [s⁻¹]	kon [2] [M⁻¹ s⁻¹]	EC50 [3] [ng/mL]	% of SP34 [4] [%]	Emax [4]
Hu153A6B1-9 (antibody, V domains shown, humanized mAb) VH: EVQLQESGPGLVKPSETLSLTCTVSGGSISSYNIHWVRQPPGKGLEWMGRIRYNGDTSYNSALKSRLTISRDTSKNQFSLKLSSVTAADTAVYYCARGPYGGSREPLFDYWGQGTMVTVSS VL: DIQMTQSPSSLSASVGDRVTITCKTSQNINKYLNWFQQKPGKAPKLLIYTTNNLQTGIPSRFSGSGSGTDFTLTISSLQPEDFATYYCLQHGSGYTFGQGTKLEIK	> 50	61.7	0.0344	558000	3.35	73.6	4310
Hu192A7B9-23 (antibody, V domains shown, humanized mAb) VH: EVQLQESGPGLVKPSETLSLTCTVSGFSISSYNVHWVRQPPGKGLEWMGRMRYNGDTSYNSALKSRLTISRDTSKNQVSLKLSSVTAADTAVYYCTRGPRGGYYSALFDYWGQGTMVTVSS VL: DIQMTQSPSSLSASVGDRVTITCKASQNINRYLNWYQQKPGKAPKVLISIANSLQTGIPSRFSGSGSGTDFTLTISSLQPEDFATYFCLQHNSWYTFGQGTKLEIK	> 50	12.3	0.000862	70200	15.8	–	–
Hu192A7B9-22 (antibody, V domains shown, humanized mAb) VH: EVQLQESGPGLVKPSETLSLTCTVSGGSISSYNVHWVRQPPGKGLEWMGRMRYNGDTSYNSALKSRLTISRDTSKNQFSLKLSSVTAADTAVYYCTRGPRGGYYSALFDYWGQGTMVTVSS VL: DIQMTQSPSSLSASVGDRVTITCKASQNINRYLNWYQQKPGKAPKVLISIANSLQTGIPSRFSGSGSGTDFTLTISSLQPEDFATYFCLQHNSWYTFGQGTKLEIK	> 50	55	0.00462	83900	7.12	–	–
Hu192A7B9-19 (antibody, V domains shown, humanized mAb) VH: EVQLQESGPGLVKPSETLSLTCTVSGGSISSYNVHWIRQPPGKGLEWIGRMRYNGDTSYNSALKSRVTISVDTSKNQFSLKLSSVTAADTAVYYCARGPRGGYYSALFDYWGQGTMVTVSS VL: DIQMTQSPSSLSASVGDRVTITCKASQNINRYLNWYQQKPGKAPKVLISIANSLQTGIPSRFSGSGSGTDFTLTISSLQPEDFATYFCLQHNSWYTFGQGTKLEIK	> 50	34.5	0.00543	157000	4.98	–	–
Hu153A6B1-3 (antibody, V domains shown, humanized mAb) VH: EVQLQESGPGLVKPSETLSLTCTVSGGSISSYNIHWVRQPPGKGLEWMGRIRYNGDTSYNSALKSRLTISRDTSKNQFSLKLSSVTAADTAVYYCARGPYGGSREPLFDYWGQGTMVTVSS VL: DIQMTQSPSSLSASVGDRVTITCKTSQNINKYLNWYQQKPGKAPKLLIYTTNNLQTGVPSRFSGSGSGTDFTLTISSLQPEDFATYYCLQHGSGYTFGQGTKLEIK	≤ 50	59.5	0.0241	406000	3.87	45.5	2660
Hu153A6B1-8 (antibody, V domains shown, humanized mAb) VH: EVQLQESGPGLVKPSETLSLTCTVSGGSISSYNIHWVRQPPGKGLEWIGRIRYNGDTSYNSALKSRVTISRDTSKNQFSLKLSSVTAADTAVYYCARGPYGGSREPLFDYWGQGTMVTVSS VL: DIQMTQSPSSLSASVGDRVTITCKTSQNINKYLNWFQQKPGKAPKLLIYTTNNLQTGIPSRFSGSGSGTDFTLTISSLQPEDFATYYCLQHGSGYTFGQGTKLEIK	> 50	49	0.0396	808000	2.95	70.5	4130
Hu192A7B9-18 (antibody, V domains shown, humanized mAb) VH: EVQLQESGPGLVKPSETLSLTCTVSGFSLTSYNVHWVRQPPGKGLEWMGRMRYNGDTSYNSALKSRLTISRDTSKNQVSLKLSSVTAADTAVYYCTRGPRGGYYSALFDYWGQGTMVTVSS VL: DIQMTQSPSSLSASVGDRVTITCKASQNINRYLNWYQQKPGKAPKLLISIANSLQTGIPSRFSGSGSGTDFTLTISSLQPEDFATYYCLQHNSWYTFGQGTKLEIK	> 50	56	0.00317	56500	8.83	–	–
Hu153A6B1-1 (antibody, V domains shown, humanized mAb) VH: EVQLQESGPGLVKPSETLSLTCTVSGGSISSYNIHWIRQPPGKGLEWIGRIRYNGDTSYNSALKSRVTISVDTSKNQFSLKLSSVTAADTAVYYCARGPYGGSREPLFDYWGQGTMVTVSS VL: DIQMTQSPSSLSASVGDRVTITCKTSQNINKYLNWYQQKPGKAPKLLIYTTNNLQTGVPSRFSGSGSGTDFTLTISSLQPEDFATYYCLQHGSGYTFGQGTKLEIK	≤ 50	8.81	0.00391	444000	16.3	19.8	1160
Hu192A7B9-24 (antibody, V domains shown, humanized mAb) VH: EVQLQESGPGLVKPSETLSLTCTVSGFSLTSYNVHWVRQPPGKGLEWMGRMRYNGDTSYNSALKSRLTISRDTSKNQVSLKLSSVTAADTAVYYCTRGPRGGYYSALFDYWGQGTMVTVSS VL: DIQMTQSPSSLSASVGDRVTITCKASQNINRYLNWYQQKPGKAPKVLISIANSLQTGIPSRFSGSGSGTDFTLTISSLQPEDFATYFCLQHNSWYTFGQGTKLEIK	> 50	9.21	0.000594	64500	20.2	–	–
Hu153A6B1-7 (antibody, V domains shown, humanized mAb) VH: EVQLQESGPGLVKPSETLSLTCTVSGGSISSYNIHWIRQPPGKGLEWIGRIRYNGDTSYNSALKSRVTISVDTSKNQFSLKLSSVTAADTAVYYCARGPYGGSREPLFDYWGQGTMVTVSS VL: DIQMTQSPSSLSASVGDRVTITCKTSQNINKYLNWFQQKPGKAPKLLIYTTNNLQTGIPSRFSGSGSGTDFTLTISSLQPEDFATYYCLQHGSGYTFGQGTKLEIK	≤ 50	45.2	0.0142	314000	6.78	26.9	1580
Hu153A6B1-5 (antibody, V domains shown, humanized mAb) VH: EVQLQESGPGLVKPSETLSLTCTVSGFSISSYNIHWVRQPPGKGLEWMGRIRYNGDTSYNSALKSRLTISRDTSKNQVSLKLSSVTAADTAVYYCTRGPYGGSREPLFDYWGQGTMVTVSS VL: DIQMTQSPSSLSASVGDRVTITCKTSQNINKYLNWYQQKPGKAPKLLIYTTNNLQTGVPSRFSGSGSGTDFTLTISSLQPEDFATYYCLQHGSGYTFGQGTKLEIK	> 50	19.4	0.00177	91300	3.23	78.5	4600
Hu192A7B9-21 (antibody, V domains shown, humanized mAb) VH: EVQLQESGPGLVKPSETLSLTCTVSGGSISSYNVHWVRQPPGKGLEWMGRMRYNGDTSYNSALKSRLTISRDTSKNQFSLKLSSVTAADTAVYYCARGPRGGYYSALFDYWGQGTMVTVSS VL: DIQMTQSPSSLSASVGDRVTITCKASQNINRYLNWYQQKPGKAPKVLISIANSLQTGIPSRFSGSGSGTDFTLTISSLQPEDFATYFCLQHNSWYTFGQGTKLEIK	> 50	55.1	0.00499	90600	5.46	–	–
Hu192A7B9-20 (antibody, V domains shown, humanized mAb) VH: EVQLQESGPGLVKPSETLSLTCTVSGGSISSYNVHWVRQPPGKGLEWIGRMRYNGDTSYNSALKSRVTISRDTSKNQFSLKLSSVTAADTAVYYCARGPRGGYYSALFDYWGQGTMVTVSS VL: DIQMTQSPSSLSASVGDRVTITCKASQNINRYLNWYQQKPGKAPKVLISIANSLQTGIPSRFSGSGSGTDFTLTISSLQPEDFATYFCLQHNSWYTFGQGTKLEIK	> 50	60.3	0.00561	93100	5.15	–	–
Hu153A6B1-6 (antibody, V domains shown, humanized mAb) VH: EVQLQESGPGLVKPSETLSLTCTVSGFSLTSYNIHWVRQPPGKGLEWMGRIRYNGDTSYNSALKSRLTISRDTSKNQVSLKLSSVTAADTAVYYCTRGPYGGSREPLFDYWGQGTMVTVSS VL: DIQMTQSPSSLSASVGDRVTITCKTSQNINKYLNWYQQKPGKAPKLLIYTTNNLQTGVPSRFSGSGSGTDFTLTISSLQPEDFATYYCLQHGSGYTFGQGTKLEIK	> 50	21.1	0.00181	85800	2.99	71.9	4210
Hu153A6B1-2 (antibody, V domains shown, humanized mAb) VH: EVQLQESGPGLVKPSETLSLTCTVSGGSISSYNIHWVRQPPGKGLEWIGRIRYNGDTSYNSALKSRVTISRDTSKNQFSLKLSSVTAADTAVYYCARGPYGGSREPLFDYWGQGTMVTVSS VL: DIQMTQSPSSLSASVGDRVTITCKTSQNINKYLNWYQQKPGKAPKLLIYTTNNLQTGVPSRFSGSGSGTDFTLTISSLQPEDFATYYCLQHGSGYTFGQGTKLEIK	≤ 50	50	0.0201	402000	3.39	42.6	2500
Hu153A6B1-4 (antibody, V domains shown, humanized mAb) VH: EVQLQESGPGLVKPSETLSLTCTVSGGSISSYNIHWVRQPPGKGLEWMGRIRYNGDTSYNSALKSRLTISRDTSKNQFSLKLSSVTAADTAVYYCTRGPYGGSREPLFDYWGQGTMVTVSS VL: DIQMTQSPSSLSASVGDRVTITCKTSQNINKYLNWYQQKPGKAPKLLIYTTNNLQTGVPSRFSGSGSGTDFTLTISSLQPEDFATYYCLQHGSGYTFGQGTKLEIK	≤ 50	58.5	0.0195	334000	3.72	44.1	2580
